Reference: article PMC8067865 (Molecules, 2021)

Columns and labels:
Assay in all cases: native MS; 3 to 4.5 uM purified P dimers, buffer exchanged to ammonium acetate (GII.10 Vietnam 125 mM; GII.17 Kawasaki and GII.4 Saga 300 mM; GII.4 MI001 250 mM) pH 7.5; nano-ESI, positive ion mode, 25 °C; monomer-dimer
[1] = biological target: fully deamidated (iDiD) GII.4 Saga P domain (VP1 residues 225-530), N373 converted to iso-aspartate (human norovirus GII.4 Saga 2006) (UniProt B5BTR7)
[2] = biological target: partially deamidated GII.4 MI001 P domain (VP1 residues 225-530), approximately 64% deamidated at N373 (human norovirus GII.4 MI001)
[3] = biological target: GII.4 MI001 P domain (VP1 residues 225-530), wildtype N373 (human norovirus GII.4 MI001)
[4] = biological target: GII.17 Kawasaki 308 P domain (VP1 residues 225-530) (human norovirus GII.17 Kawasaki 308)
[5] = biological target: GII.10 Vietnam 026 P domain (VP1 residues 224-538) (human norovirus GII.10 Vietnam 026)
[6] = biological target: the molecule itself

Question: With “fully deamidated (iDiD) GII.4 Saga P domain (VP1 residues 225-530), N373 converted to iso-aspartate (from UniProt B5BTR7 225-530) (domain or fragment)” as the molecule, how does the percent monomers [1] read?
Answer: 32%

Question: “partially deamidated GII.4 MI001 P domain (VP1 residues 225-530), approximately 64% deamidated at N373 (domain or fragment)” was tested. Which percent monomers [2] did it give?
Answer: 16%

Question: How did the stoichiometry N [3] turn out when “GII.4 MI001 P domain (VP1 residues 225-530), wildtype N373 (domain or fragment)” was run?
Answer: 2

Question: How did the stoichiometry N [4] turn out when “GII.17 Kawasaki 308 P domain (VP1 residues 225-530) (domain or fragment)” was run?
Answer: 2

Question: For “GII.10 Vietnam 026 P domain (VP1 residues 224-538) (domain or fragment)”, which stoichiometry N [5] is on record?
Answer: 2

B1: GII.4 Saga 2006 P domain (VP1 residues 225-530), wildtype N373 (NN) (domain or fragment)
chain: GPGSKPFTVPILTVEEMTNSRFPIPLEKLFTGPSGAFVVQPQNGRCTTDGVLLGTTQLSPVNICTFRGDVTHIAGSRNYTMNLASLNWNNYDPTEEIPAPLGTPDFVGKIQGLLTQTTKGDGSTRGHKATVYTGSAPFTPKLGSVQFSTDTENDFETHQNTKFTPVGVIQDGSTTHRNEPQQWVLPSYSGRNVHNVHLAPAVAPTFPGEQLLFFRSTMPGCSGYPNMDLDCLLPQEWVQHFYQEAAPAQSDVALLRFVNPDTGRVLFECKLHKSGYVTVAHTGQHDLVIPPNGYFRFDSWVNQFYTLAPM
notes: major capsid protein VP1 of human norovirus GII.4 Saga 2006, protruding (P) domain, VP1 residues 225-530; also called GII.4 Saga P dimer; wildtype GII.4 Saga P domains; source: E. coli BL21(DE3), purified (Ni-NTA, HRV 3C cleavage, SEC; cation exchange to separate pure N373 wildtype); not shown: two His-tags, N-terminal, cleaved
Question: B1 was tested. Which “stoichiometry N” value [6] did it give?
Answer: 2
